The chains are these.
T1: TNFR2-His (Sino Biological, 10417-H08H, NP_001057.1 Met1-Asp257, with multi-histidine tag expressed on … (human, UniProt P20333 23-257))
T1 construct: range 1-257; Bought protein; also called recombinant human TNFR2 protein; TNFR2-His antigen; not shown: C-terminal multi-histidine tag
T1 sequence (looked up): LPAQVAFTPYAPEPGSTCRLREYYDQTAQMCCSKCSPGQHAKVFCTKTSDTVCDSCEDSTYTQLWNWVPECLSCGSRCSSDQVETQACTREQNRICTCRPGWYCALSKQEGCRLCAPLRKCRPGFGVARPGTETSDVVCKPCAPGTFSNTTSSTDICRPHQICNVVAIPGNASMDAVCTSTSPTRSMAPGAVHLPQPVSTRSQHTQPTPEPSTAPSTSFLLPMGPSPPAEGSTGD

T2: human TNFR2 on the cell membrane (human, UniProt P20333 23-461)
T2 construct: whole, on cells; One molecule for all cell formats; also called TNFR2-CHO cells; CHO-TNFR2
T2 sequence (looked up): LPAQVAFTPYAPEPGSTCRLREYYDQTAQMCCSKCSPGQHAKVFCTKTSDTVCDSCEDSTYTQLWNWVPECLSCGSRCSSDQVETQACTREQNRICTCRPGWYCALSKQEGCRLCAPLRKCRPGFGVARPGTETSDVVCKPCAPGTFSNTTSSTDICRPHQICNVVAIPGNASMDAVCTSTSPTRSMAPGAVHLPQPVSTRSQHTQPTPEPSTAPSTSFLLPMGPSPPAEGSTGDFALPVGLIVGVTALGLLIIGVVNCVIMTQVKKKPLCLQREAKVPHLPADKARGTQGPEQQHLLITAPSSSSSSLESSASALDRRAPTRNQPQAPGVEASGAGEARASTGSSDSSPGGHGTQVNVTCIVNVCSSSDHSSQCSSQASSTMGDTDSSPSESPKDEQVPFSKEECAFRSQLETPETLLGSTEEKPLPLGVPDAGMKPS

B1: 11G2huVH1 + huVL3(P07271) (antibody, V domains shown)
VH: QVQLVQSGAEVKKPGASVKLSCKASGYTFITYDINWVRQAPGQGLEWIGWIYPRDGNTQFNENFKGKATMTVDESTSTAYMEVRSLRSDDTAVYYCARGDRDYGYFDVWGQGTTVTVSS
VL: DIQMTQSPSSLSASVGDRVTITCQASQDISNYLNWYQQKPGKAPKLLIYFKSKLETGVPSRFSGSGSGTDFTFTISSLQPEDIATYYCQQGNTLPLTFGGGTKLEIK
notes: Humanized 11G2
B2: 11G2huVH5 + huVL2(P07270) (antibody, V domains shown)
VH: QVQLVQSGAEVKKPGASVKVSCKASGYTFITYDINWVRQATGQGLEWIGWIYPRDGNTQYAQKFQGRVTMTRNTSISTAYMELSSLRSEDTAVYYCARGDRDYGYFDVWGQGTTVTVSS
VL: B1 VL with Q24R, E55H, T56S, F73L, I83F
notes: Humanized 11G2
B3: 11G2huVH4 + huVL3(P07274) (antibody, V domains shown)
VH: B2 VH with T41P, R72T, N73D, I76T, S84R, E89D
VL: B1 VL
notes: Humanized 11G2
B4: 11G2huVH3 + huVL3(P07273) (antibody, V domains shown)
VH: B2 VH with Y60F, A61N, Q62E, K63N
VL: B1 VL
notes: Humanized 11G2
B5: 11G2huVH2 + huVL3(P07272) (antibody, V domains shown)
VH: B1 VH with L20V, K67R, A68V, V72T, E74T, V83L
VL: B1 VL
notes: Humanized 11G2
B6: 12E12huVH1+huVL1(P07277) (antibody, V domains shown)
VH: EVQLVQSGAEVKKPGASVKLSCTVSGFNIKDFYIHWVRQAPGQGLEWIGRVDPEDGNTEYAPNFQDRATMTTDTSTNTAYLELSSLRSEDTAVYYCSTWDGFSYFDYWGQGTTVTVSS
VL: QAVVTQEPSLTVSPGGTVTLTCRSSTGPVTTNNYANWVQQKPGQAFRGLIGGTNDRAPGVPARFSGSLIGDKTALTLSGVQPEDEAEYYCALWYRNHWVFGGGTKLTVL
B7: 12E12huVH3 + huVL2(P07282) (antibody, V domains shown)
VH: QVQLVQSGAEVKKPGASVKVSCKVSGFNIKDFYIHWVRQAPGKGLEWMGRVDPEDGNTEYAQKFQGRVTMTTDTSTDTAYMELSSLRSEDTAVYYCSTWDGFSYFDYWGQGTTVTVSS
VL: B6 VL with I69L, D71G, T73A, V80A
notes: Humanized 12E12
B8: 12E12huVH4 + huVL4(P07291) (antibody, V domains shown)
VH: B6 VH with S17T, L20I, T23K, R38Q, Q43K, A68V, M70I, T72A, N77D, L81M
VL: EAVVTQSPATLSLSPGERATLSCRSSTGPVTTNNYANWVQQKPGQAFRGLIGGTNDRAPGIPARFSGSGSGTDTTLTISSLQPEDFAVYYCALWYRNHWVFGGGTKLEIK
notes: Humanized 12E12
B9: 12E12huVH3+huVL1(P07281) (antibody, V domains shown)
VH: B7 VH
VL: B6 VL
B10: 12E12huVH2+huVL2(P07279) (antibody, V domains shown)
VH: B6 VH with E1Q, L20V, T23K, N77S
VL: B6 VL with I69L, D71G, T73A, V80A
B11: 12E12huVH4+huVL2(P07284) (antibody, V domains shown)
VH: B6 VH with S17T, L20I, T23K, R38Q, Q43K, A68V, M70I, T72A, N77D, L81M
VL: B6 VL with I69L, D71G, T73A, V80A
B12: 12E12huVH2+huVL1(P07278) (antibody, V domains shown)
VH: B6 VH with E1Q, L20V, T23K, N77S
VL: B6 VL
B13: 12E12huVH5 + huVL2(P07286) (antibody, V domains shown)
VH: B7 VH with Q1E, S17T, V20I, R38Q, M48I, Q62E, M70I, T72A
VL: B6 VL with I69L, D71G, T73A, V80A
notes: Humanized 12E12
B14: 12E12huVH3 + huVL4(P07290) (antibody, V domains shown)
VH: B7 VH
VL: B8 VL
notes: Humanized 12E12
B15: 12E12huVH1+huVL4(P07288) (antibody, V domains shown)
VH: B6 VH
VL: B8 VL
B16: 12E12huVH5 + huVL4(P07292) (antibody, V domains shown)
VH: B7 VH with Q1E, S17T, V20I, R38Q, M48I, Q62E, M70I, T72A
VL: B8 VL
notes: Humanized 12E12
B17: 12E12huVH2+huVL4(P07289) (antibody, V domains shown)
VH: B6 VH with E1Q, L20V, T23K, N77S
VL: B8 VL

Where a chain is given by its changes, count along the chain named. Several values for one entry are separate records, joined by “and”; a condition that tells them apart may be missing. Equal entries are not always repeated.

The first assay concerns the target T1, TNFR2-His (Sino Biological, 10417-H08H, …). Nature of the assay: BLI, antibody captured on AHC probe, TNFR2-His in solution. The method, boiled down: (§1)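 Bio-layer interferometry on an Octet in Basic Kinetics mode. Antibodies at 50 nM in Q buffer (10 mM PBS pH 7.4, 0.02% Tween 20, 0.2% BSA) were held on antibody-capture sensors. The sensors were then placed in recombinant human TNFR2 diluted 2-fold in Q buffer from a top concentration of 100 nM. Kon, koff and Kd come from these kinetic association measurements.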
A general note: In BLI a coated tip is dipped into the sample, and binding shifts an interference pattern.
A word on the Kd: it is the constant that tells how readily two partners part at equilibrium. The low end stands for higher affinity, the high end for lower affinity. The term koff denotes the rate constant with which the complex falls apart. By kon is commonly meant the second-order rate constant of association. Low values mean slow association, high ones fast association. For B1, the Kd turned out to be 8.4 nM, the koff came to 0.00251 s⁻¹ and the kon stood at 299000 M⁻¹ s⁻¹.

Molecule B2 showed a Kd of 8.13 nM, a koff of 0.00265 s⁻¹ and an on-rate constant (kon) of 326000 M⁻¹ s⁻¹.

With B3, the dissociation constant Kd worked out at 20.1 nM, the koff came out at 0.00511 s⁻¹ and the kon stood at 254000 M⁻¹ s⁻¹.

B4: binding was put at a Kd of 10.2 nM, the dissociation rate constant (koff) was 0.00255 s⁻¹ and the kon came out at 249000 M⁻¹ s⁻¹.

For B5, binding was put at a Kd of 10.6 nM, the koff turned out to be 0.00293 s⁻¹ and the on-rate (kon) was 276000 M⁻¹ s⁻¹.

A further assay shares this target. Nature of the assay: ELISA, plate coated with TNFR2-His (first test). The method, boiled down: (§2)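 EC50 values come from antibody dilution series tested by ELISA. Plates were coated with recombinant human TNFR2 bearing a C-terminal His tag and blocked before the serially diluted antibodies were added. Binding was detected with an enzyme-labelled anti-IgG secondary antibody, TMB development and a microplate reader.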
(In general: ELISA stands for enzyme-linked immunosorbent assay.)
A word on the EC50: it is the midpoint of the concentration-response curve. For B6, the EC50 was 0.0606 µg/mL and 0.406 nM.

Take B7: the EC50 was 0.045 µg/mL and 0.301 nM.

As to B8, the EC50 is 0.0416 µg/mL and 0.279 nM.

For the molecule B9, the EC50 was 0.0596 µg/mL and 0.399 nM.

In the case of B10, the concentration giving a half-maximal response (EC50) is 0.0687 µg/mL and 0.46 nM.

As for B11, the EC50 is 0.049 µg/mL and 0.328 nM.

For B12, the 50% effective concentration (EC50) is 0.0614 µg/mL and 0.411 nM.

For the molecule B13, the half-maximal effective concentration (EC50) is 0.0754 µg/mL and 0.505 nM.

On to B14, for which the EC50 is 0.059 µg/mL and 0.395 nM.

For the molecule B15, the concentration giving a half-maximal response (EC50) was 0.0739 µg/mL and 0.495 nM.

On to B16, for which the 50% effective concentration (EC50) is 0.0533 µg/mL and 0.357 nM.

For B17, the 50% effective concentration (EC50) was 0.0672 µg/mL and 0.45 nM.

Another assay has as its target T2, human TNFR2 on the cell membrane. Kind of assay: flow cytometry, CHO-TNFR2 cells. The method, boiled down:
(§3)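 CHO cells were transfected with a pcDNA3.4 vector carrying human TNFR2, taken through drug selection and sorted as single clones to give a line that stably overexpresses the receptor. These cells were placed in 96-deep-well plates, incubated with serially diluted antibodies, washed and then stained with a fluorescent anti-IgG secondary antibody. Flow cytometry was run on a Beckman CytoFLEX, and EC50 values were derived from the dilution series.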
As for B2, the EC50 was determined as 0.162 nM.

For B3, the EC50 came out at 0.226 nM.

The target in another assay is T1, TNFR2-His (Sino Biological, 10417-H08H, …). Nature of the assay: BLI, antibody captured on AHC probe, TNFR2 in solution. The method, boiled down: as §1
With B7, the Kd was determined as 6.38 nM, the koff turned out to be 0.00487 s⁻¹ and the kon is 764000 M⁻¹ s⁻¹.

Molecule B8 had an equilibrium dissociation constant (Kd) of 4.84 nM, a koff of 0.00379 s⁻¹ and an association rate constant (kon) of 782000 M⁻¹ s⁻¹.

B13: binding was put at a Kd of 1.71 nM, the koff was 0.00197 s⁻¹ and the on-rate constant (kon) came out at 1.15e+06 M⁻¹ s⁻¹.

For B14, the dissociation constant Kd worked out at 5.03 nM, the off-rate constant (koff) worked out at 0.00407 s⁻¹ and the association rate constant (kon) worked out at 810000 M⁻¹ s⁻¹.

In turn, B16 registered an equilibrium dissociation constant (Kd) of 3.14 nM, an off-rate constant (koff) of 0.0034 s⁻¹ and a kon of 1.08e+06 M⁻¹ s⁻¹.

For another assay the target is unchanged. Kind of assay: ELISA, coated TNFR2-His. The method, boiled down: as §2
B1 yielded a 50% effective concentration (EC50) of 0.479 nM.

In turn, B2 yielded a half-maximal effective concentration (EC50) of 0.353 nM.

As to B3, a half-maximal response (EC50) required 0.5 nM.

In turn, B4 registered a concentration giving a half-maximal response (EC50) of 0.521 nM.

B5 gave an EC50 of 0.576 nM.

The target in a further assay is T2, human TNFR2 on the cell membrane. Kind of assay: flow cytometry on CHO-TNFR2 cells. The method, boiled down:
as §3
On to B7, for which the EC50 was 0.0203 µg/mL and 0.136 nM.

Turning to B8, the concentration giving a half-maximal response (EC50) was 0.0215 µg/mL and 0.144 nM.

Take B13: the concentration for a half-maximal effect (EC50) is 0.149 µg/mL and 1 nM.

Consider B14, for which the EC50 is 0.0367 µg/mL and 0.246 nM.

With B16, the EC50 is 0.0329 µg/mL and 0.221 nM.

In a further assay the target is T1, TNFR2-His (Sino Biological, 10417-H08H, …). Nature of the assay: ELISA, plate coated with TNFR2-His. The method, boiled down:
as §2
In turn, B1 registered an EC50 of 0.0715 µg/mL.

Turning to B2, the 50% effective concentration (EC50) is 0.0527 µg/mL. This EC50 and that of the molecule before are within 1.5-fold of each other.

For B3, the EC50 was 0.0746 µg/mL. This EC50 and that of the molecule before are within 1.5-fold of each other.

In turn, B4 showed an EC50 of 0.0778 µg/mL.

In turn, B5 had an EC50 of 0.0859 µg/mL. The EC50 values of the last two molecules are within 1.5-fold of each other.

The target of another assay is T2, human TNFR2 on the cell membrane. Nature of the assay: flow cytometry on CHO-TNFR2 cells. The source holds these as a separate data set. The method, boiled down: as §3
Background: A flow cytometer gives signals particle by particle.
The molecule B2 gave an EC50 of 0.0242 µg/mL.

B3 showed a half-maximal effective concentration (EC50) of 0.0338 µg/mL.

For the origin of these results see US20240392024A1 (SHANGHAI CELGEN BIO PHARMACEUTICAL, published 2024).
